{"source": "paper PMC4209464", "key": {"[1]": {"molecular_target": "PfCD mutant Ile138His (Pyrococcus furiosus)", "assay": "native gel or EMSA"}, "[2]": {"molecular_target": "Pyrococcus furiosus Chaperonin 60 with Ile138, with the last 22 amino acids deleted (PfCD) (Pyrococcus furiosus)", "assay": "native gel or EMSA"}, "[3]": {"molecular_target": "Pyrococcus furiosus Chaperonin 60 with Ile138, with the last 22 amino acids deleted (PfCD) (Pyrococcus furiosus)", "assay": "SEC"}}, "data": [{"substance": "PfCD mutant Ile138His (domain or fragment)", "values": [{"measurement": "stoichiometry N", "setting": "[1]", "result": 16}]}, {"substance": "Pyrococcus furiosus Chaperonin 60 with Ile138, with the last 22 amino acids deleted (PfCD) (domain or fragment)", "values": [{"measurement": "stoichiometry N", "setting": "[2]", "result": 16}, {"measurement": "stoichiometry N", "setting": "[3]", "result": 16}]}]}
